Experimental data: publication PMC12647621, “A de novo missense variant in MIDEAS results in increased deacetylase activity of the MiDAC HDAC complex causing a neurodevelopmental syndrome” (Nature Communications, 2025)

B1: MIDEAS (628-887) (domain or fragment, human, UniProt Q6PJG2 628-887, looked up)
chain: TPYQSHLRSPVRLADHPSERSFELPPYTPPPILSPVREGSGLYFNAIISTSTIPAPPPITPKSAHRTLLRTNSAEVTPPVLSVMGEATPVSIEPRINVGSRFQAEIPLMRDRALAAADPHKADLVWQPWEDLESSREKQRQVEDLLTAACSSIFPGAGTNQELALHCLHESRGDILETLNKLLLKKPLRPHNHPLATYHYTGSDQWKMAERKLFNKGIAIYKKDFFLVQKLIQTKTVAQCVEFYYTYKKQVKIGRNGTLT
B2: MIDEAS 628-887 Y654S T655A (SAP) (domain or fragment, human, UniProt Q6PJG2 628-887, looked up)
chain: TPYQSHLRSPVRLADHPSERSFELPPSAPPPILSPVREGSGLYFNAIISTSTIPAPPPITPKSAHRTLLRTNSAEVTPPVLSVMGEATPVSIEPRINVGSRFQAEIPLMRDRALAAADPHKADLVWQPWEDLESSREKQRQVEDLLTAACSSIFPGAGTNQELALHCLHESRGDILETLNKLLLKKPLRPHNHPLATYHYTGSDQWKMAERKLFNKGIAIYKKDFFLVQKLIQTKTVAQCVEFYYTYKKQVKIGRNGTLT
B3: MIDEAS 628-887 Y654S (STP) (domain or fragment, human, UniProt Q6PJG2 628-887, looked up)
chain: TPYQSHLRSPVRLADHPSERSFELPPSTPPPILSPVREGSGLYFNAIISTSTIPAPPPITPKSAHRTLLRTNSAEVTPPVLSVMGEATPVSIEPRINVGSRFQAEIPLMRDRALAAADPHKADLVWQPWEDLESSREKQRQVEDLLTAACSSIFPGAGTNQELALHCLHESRGDILETLNKLLLKKPLRPHNHPLATYHYTGSDQWKMAERKLFNKGIAIYKKDFFLVQKLIQTKTVAQCVEFYYTYKKQVKIGRNGTLT
modifications: phosphorylation either on S654 or T655 detected on more than 41% of the peptides containing STP
B4: MIDEAS 628-887 Y654S T655D (SDP) (domain or fragment, human, UniProt Q6PJG2 628-887, looked up)
chain: TPYQSHLRSPVRLADHPSERSFELPPSDPPPILSPVREGSGLYFNAIISTSTIPAPPPITPKSAHRTLLRTNSAEVTPPVLSVMGEATPVSIEPRINVGSRFQAEIPLMRDRALAAADPHKADLVWQPWEDLESSREKQRQVEDLLTAACSSIFPGAGTNQELALHCLHESRGDILETLNKLLLKKPLRPHNHPLATYHYTGSDQWKMAERKLFNKGIAIYKKDFFLVQKLIQTKTVAQCVEFYYTYKKQVKIGRNGTLT
B5: MIDEAS 717-887 (WT) (domain or fragment, human, UniProt Q6PJG2 717-887, looked up)
chain: VSIEPRINVGSRFQAEIPLMRDRALAAADPHKADLVWQPWEDLESSREKQRQVEDLLTAACSSIFPGAGTNQELALHCLHESRGDILETLNKLLLKKPLRPHNHPLATYHYTGSDQWKMAERKLFNKGIAIYKKDFFLVQKLIQTKTVAQCVEFYYTYKKQVKIGRNGTLT

What follows are binders tested against HDAC1 (full-length) (UniProt Q13547 1-482) (assay: cell-based or functional assay).
HDAC1 (full-length), sequence (Q13547 whole entry): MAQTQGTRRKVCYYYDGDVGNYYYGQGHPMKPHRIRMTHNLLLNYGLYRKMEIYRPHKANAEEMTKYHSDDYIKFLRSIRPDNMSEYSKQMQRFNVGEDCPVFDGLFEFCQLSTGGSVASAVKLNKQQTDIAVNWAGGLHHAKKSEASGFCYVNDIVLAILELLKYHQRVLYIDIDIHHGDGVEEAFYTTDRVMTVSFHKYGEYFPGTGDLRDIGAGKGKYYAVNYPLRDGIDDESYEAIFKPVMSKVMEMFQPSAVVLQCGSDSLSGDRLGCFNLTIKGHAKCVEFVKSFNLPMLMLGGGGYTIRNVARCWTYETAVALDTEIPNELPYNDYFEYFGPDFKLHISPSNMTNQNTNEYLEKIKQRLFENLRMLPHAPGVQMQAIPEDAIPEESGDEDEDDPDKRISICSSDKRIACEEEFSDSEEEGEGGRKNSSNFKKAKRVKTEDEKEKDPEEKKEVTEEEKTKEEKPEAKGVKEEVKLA

Point of comparison: B5, “initial rate of deacetylation of H3K9ac peptide (100 µM) by the MiDAC complex (50 nM HDAC1), NMR assay” value 29.7 nM/s. Against it:
- B1 — lower, 6.3 nM/s
- B2 — lower, 16.6 nM/s
- B3 — lower, 20.4 nM/s
- B4 — lower, 27.3 nM/s
